In the supplement of paper PMC9732359:
± gives the uncertainty stated by the source.

Assay: protein stability index of a GFP-peptide fusion (yeast GPS) (PSI 1-4); higher = more stable; sorted into four equal gates, so the index is relative within each strain
Outline: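 For each peptide, the protein stability index sums the read frequency in every gate after multiplying it by the gate number. Read frequencies came from plasmids that were PCR-amplified from each gate and Illumina-sequenced, with reads assigned to strains by barcodes. The gates were four equal bins of GFP/Cherry fluorescence ratio applied to mid-log yeast in leucine-free medium carrying a pooled library of tiled 17-residue yeast protein peptides fused downstream of GFP on a Cherry-expressing plasmid.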

| Sequence | protein stability index (pdr5∆) | protein stability index (san1∆) | protein stability index (ubr1∆) | protein stability index (doa10∆) |
| --- | --- | --- | --- | --- |
| SLKGYKIENSVQIGAEI [CSI1] | 3.21 ± 0.2 | 3.25 ± 0.13 | 3.17 ± 0.17 |  |
| LDKNLIKLVKQNDELKF [RPC34] | 1.21 ± 0.073 | 1.43 ± 0.18 | 2.18 ± 0.1 | 1.16 ± 0.077 |
| CHLYSQRMHAIHEIDER [NNF1] | 1.64 ± 0.065 | 1.8 ± 0.1 | 1.63 ± 0.073 | 1.24 ± 0.082 |
| LQGQMEKIMILLVPLAL [CSN12] | 1.63 ± 0.04 | 1.3 ± 0.074 | 1.52 ± 0.045 | 1.84 ± 0.048 |
| SQCRLHELREKERISVA [PRE2] | 2.59 ± 0.097 | 2.87 ± 0.097 | 1.67 ± 0.04 | 2.25 ± 0.11 |
| IELLSYLVEAPWNDDYP [YML103C/NUP188] | 2.04 ± 0.15 |  | 2.49 ± 0.17 | 1.68 ± 0.093 |
| LIEEEVEQDEGQCRTEL [YCS4] | 3.53 ± 0.15 |  | 3.45 ± 0.12 | 3.59 ± 0.13 |
| VRMLASPMLYKVPDISS [BRR2] | 2.77 ± 0.078 | 1.96 ± 0.1 | 2.28 ± 0.051 | 2.28 ± 0.073 |
| SEKKDTDGADENVQIGE [SRB4] | 3.31 ± 0.17 |  | 3.06 ± 0.18 | 2.65 ± 0.12 |
| NKFHKSIREDILECDLL [SIR2] | 2.91 ± 0.066 | 3 ± 0.049 | 3.08 ± 0.06 | 2.73 ± 0.058 |
| WMLSICVEWRLPEIAKE [YJR042W/NUP85] | 1.37 ± 0.05 | 1.51 ± 0.11 | 1.67 ± 0.061 | 1.2 ± 0.08 |
| SSTITGDVVLAAAYSHE [RPL5] | 2.56 ± 0.06 | 2.61 ± 0.057 | 2.31 ± 0.058 | 2.32 ± 0.056 |
| VDSISLHKIFYKVLKNN [YCG1] | 2.32 ± 0.039 | 2.71 ± 0.037 | 2.3 ± 0.042 | 1.99 ± 0.047 |
| MLVKAVANSTKAAFIRV [RPT3] | 1.5 ± 0.047 | 1.38 ± 0.11 | 1.27 ± 0.036 | 1.97 ± 0.05 |
| QYIRTLVSEARTLWPEF [SSN8] | 2.67 ± 0.052 | 2.39 ± 0.06 | 2.42 ± 0.046 | 2.61 ± 0.052 |
| SVIQLCGGINDSIPYPQ [ECM29] | 2.59 ± 0.23 | 2.57 ± 0.13 | 2.88 ± 0.078 | 3.16 ± 0.17 |
| NEKIEKRSDLTGANSIY [UBP6] | 3.01 ± 0.062 | 3.06 ± 0.075 | 3.15 ± 0.068 | 2.75 ± 0.086 |
| IHIQETQEFSKNYTTET [SIR3] | 3.15 ± 0.11 | 3.4 ± 0.16 | 3.31 ± 0.069 | 3.39 ± 0.1 |
| KERLTKEAAAIAEGKSK [RPL8B] | 2.33 ± 0.056 | 2.02 ± 0.073 | 2.38 ± 0.033 | 2.19 ± 0.05 |
| ITFHPKIRARSITLQGD [SMC2] | 2.56 ± 0.045 | 2.69 ± 0.051 | 2.48 ± 0.043 | 2.48 ± 0.049 |
| SNASRRKLINYTKKHLS [RPN4] | 1.27 ± 0.056 | 1.56 ± 0.097 | 1.34 ± 0.042 | 1.73 ± 0.071 |
| QITIEPGVDVEVVVASN [RPS20] | 2.57 ± 0.099 | 3.01 ± 0.098 | 2.51 ± 0.066 | 2.53 ± 0.061 |

| Sequence | protein stability index (pdr5∆) | protein stability index (san1∆) | protein stability index (ubr1∆) | protein stability index (doa10∆) |
| --- | --- | --- | --- | --- |
| PKQSDEYLKRVSVPVSG [SIR3] | 2.55 ± 0.089 | 2.81 ± 0.096 | 2.72 ± 0.14 | 3.13 ± 0.086 |
| AYPAAREQFLNAQDIDH [FAS1] | 3.15 ± 0.11 | 2.84 ± 0.11 | 3.21 ± 0.054 | 3.13 ± 0.082 |
| EFEIPVSFNGFKLPKKF [BRR2] | 2.94 ± 0.12 | 2.61 ± 0.12 | 2.91 ± 0.094 | 2.58 ± 0.1 |
| SFTDILKSAIRDEIAKN [RPN12] | 2.98 ± 0.12 | 3.08 ± 0.09 | 2.89 ± 0.065 | 2.76 ± 0.1 |
| IPDHLAELIPELYSFQQ [SNF12] | 2.94 ± 0.07 | 2.95 ± 0.05 | 2.93 ± 0.059 | 3.02 ± 0.077 |
| VLEQLSGQTPVQSKARY [RPL11A] | 2.98 ± 0.17 | 2.91 ± 0.077 | 3.15 ± 0.088 | 3.2 ± 0.24 |
| MMEEIINVVIKASRKSV [ECM29] | 1.75 ± 0.068 | 2.04 ± 0.21 | 1.53 ± 0.12 | 1.76 ± 0.073 |
| SQSSNANICLTFLESIN [SIN4] | 2.61 ± 0.054 | 2.55 ± 0.05 | 2.74 ± 0.048 | 2.42 ± 0.048 |
| IPRTFRTPVPSTLMPGG [SNF5] | 2.18 ± 0.05 | 2.44 ± 0.045 | 2.65 ± 0.048 | 2.68 ± 0.066 |
| NPVALEQKLVDLLKFEN [BRR2] | 3.23 ± 0.11 | 2.3 ± 0.12 | 2.47 ± 0.12 | 2.94 ± 0.17 |
| SRGIVIGSGAMSPLECR [RPP1] | 2.34 ± 0.048 | 2.12 ± 0.069 | 2.44 ± 0.036 | 1.69 ± 0.031 |
| FHIACSVGNLEVVKSLY [NAS6] | 2.39 ± 0.068 | 2.45 ± 0.056 | 2.67 ± 0.065 | 2.08 ± 0.078 |
| KTTITRVEPETFEIPQA [SWI3] | 2.81 ± 0.081 | 2.84 ± 0.072 | 2.38 ± 0.054 | 2.38 ± 0.066 |
| KIFVETKFSKLIGRPPL [FAS1] | 2.54 ± 0.093 | 2.35 ± 0.11 | 1.79 ± 0.059 | 1.97 ± 0.29 |
| VVLRLYLKDNITLLTRQ [GRR1] | 1.75 ± 0.084 | 1.34 ± 0.11 | 1.98 ± 0.067 | 1.88 ± 0.057 |
| GGCDYIFSLLTGYPDEP [CYT1] | 3.39 ± 0.15 | 2.77 ± 0.081 | 3.08 ± 0.081 | 3.42 ± 0.14 |
| NEPSQSLISTRNDSTVN [BRN1] | 3.17 ± 0.086 | 3.08 ± 0.071 | 2.82 ± 0.045 | 3.16 ± 0.07 |
| LVNIRTQTSKEQEIENN [ITC1] | 3.05 ± 0.067 | 2.9 ± 0.061 | 3.06 ± 0.066 | 2.9 ± 0.054 |
| EIIPLQDYYIIGANIYQ [MED6] | 3.07 ± 0.052 | 3.16 ± 0.04 | 3.1 ± 0.044 | 2.97 ± 0.064 |
| AKPDNLANFSNEVAMNN [SWP82] | 3.21 ± 0.078 | 3.13 ± 0.052 | 3.23 ± 0.067 | 3.22 ± 0.082 |
| SVSPQMNAILTDVKLTL [SMD1] | 2.85 ± 0.062 | 2.83 ± 0.04 | 3 ± 0.057 | 2.85 ± 0.047 |
